The values that follow come from patent US20230226096A1 (Orna Therapeutics, Inc., priority 2020, published 2023).

To fix the notation:
B1: Breda virus (nucleic acid)
DNA: ATCACCTAGTACTTACAAGCGGGTCAAACCGCCCTCCGGAACGGTCATAACCCCCTCCCGAACGTGCGCTTGACGTGACTGGTCTTTCAGTCTAGCTTTCTGAGAAATACTCCGGGGTTGTAACCCACCATTTTGACCTTTGGTCAGTTTGGTAACACTCCAACCAAACAGCATCTGACCCACCTCCAGCTTGCTGCAGGCCATTTGGACCAAACGGGTTCAGATATCTTGTGGCTAAACCTCTGACCCACCTCCAGTTTACTGCAGGCCTTTTGGACTAAACGGGTACAGACTCTTTGTGGTTAGTTTTTAACTACCCACTGTTTAGCCGCCAACCTGATTTTTATTGTTACAAAATTTTGTGTTTACACATTATTTTCTTACGGTTGGCAGTTTGTTTGGTTGTTTGCACAGTTTTTGCTGATACCAATTTTTACTGTGCTTTTGGTGTTTTCGGCTAAGGCTGTTTTTCACATACTTAGTTTGCTTGAAGTAACCTTCACAACATCTGTTTTGTTTTTGGTTTCTAAGGTAAAGAGTTTCAGGAAAAAACATAGGCGCCCATCTTGTGGTGTCTAGTTTTAATTAATCTGGCAAACAAGTATCAAGTCATCGACTCCCTTTGGAGTGAGACTTACGAGTACCAATTCGCCTATTTTGGCCATCCATATAAAA
B2: Rafivirus LPXYC222841 (nucleic acid, listed as Rafivirus sp.)
DNA: GTGTCCGGGAAGCGACTCAAGCTTTTGACTGAGTCTCTACACCTTCATCCGTAACATCTTTAAGTTTATGTGCCTATGGACCTCTAGTGCACTGCCATCACCGGGGGTGTATTGGACTGGTTTTTCCACAATCCATTCATCCTGAGGAATTTTGGCTTTGTTACTAGGATGGTCCCACCACACGCTTATCTGTGCCTATTGTGTCAACCATGTTCTTAAGTAGTTGTGCCCGTGGGTGAGTAGATAACCACAACAATCCGATAAAGCATCTCGCAAGGATGTGAGTAATGGAGTGTATGTGCTACAGAGACCCACAACCTGAACCAAGAGAGACACAGTGAGGATTGTAAAGGGGGAACTCTTTGAAAGGGCATGTCCCGCAATTCCTACTGACTGACACCGGGGGTTGGTGTCGGTGGATTTTAGCAAATCCTGTTACTGGGTGATAGCCTTGTGCACTTCACTTGGTTCTTGTATAAGTGCTGTA
B3: Bovine rhinitis A virus (nucleic acid)
DNA: TTTTGCGGCTCTGCCGCCGTTCGGGTTTTACCTGTTTTCACAGAGCAAAACAGGACCTCTAGTTTCGTGCTTAAACGAGATCATGCTCGAACTAGAACTATAACGCTGGTCACTGGACCCGTGCCGCGCCTTGCGGATCTTTGCGGGAATGGTGGCTAGTGGGCTGTGGAAGTGACTCTAACCACACGCCCCTCAAGTGTGGGAAAACACGAACTGGTGTAGCGACGACGATAGGCCTTGGGACACCCTCTCCAGTGATGGAGACCCAAGGGGCCAAAAGCCACGCCTTGTGCCCTGTCGTTCACAACCCCAGTGCAGTTCGTGCCAGTACCTGCTTTTGGGAAGTGTGCTTTGGACAGCTGAAAACAGTCCTAGTGGGAGACTAAGGATGCCCAGGAGGTACCCGGAGGTAACAAGTGACACTCTGGATCTGACTTGGGGAGAGCGGGTCTGCTTTACAGACGCCACTCTTTAAAAAACTTCTATGTCTCGTCAGGCACCGGAGGCCGGGCCTTTTCCTTTAAAACAATACACTTT
modifications: Bovine rhinitis A virus
B4: Bovine viral diarrhea virus 3 (nucleic acid)
DNA: GTATACGCCCAGTTAGTTCAGGTGGACGTGTACGATTGGGTATCCCAAATTAATAATTTGGTTTAGGGACTAAATCCCCTGGCGAAGGCCGAAACAGGTTAACCATACCTTTAGTAGGACGAGCATAATGGGGGACTAGTGGTGGCAGTGAGCTCCCTGGATCACCGAAGCCCCGAGTACGGGGTAGTCGTCAATGGTTCGACGCATCAAGGAATGCCTCGAGATGCCATGTGGACGAGGGCGTGCCCACGGTGTATCTTAACCCAGGCGGGGGCCGCTTGGGTGAAATAGGGTTGTTATACAAGCCTTTGGGAGTACAGCCTGATAGGGTGTTGCAGAGACCTGCTACACCACTAGTATAAAAACTCTGCTGTACATGGCAC

The data set concerns HEK293 cells. Format: cell-based, human. As to conditions: luminescence from secreted Gluc in supernatant 24 hours after transfection of HEK293 cells; circular RNA encoding Gluc with the named IRES (UTR truncated to 675 nt).
Take B1: the Expression stood at 1.16E+05.

In turn, B2 came in with an Expression of 2.22E+05.

Turning to B3, the Expression stood at 3.62E+06.

B4 gave an Expression of 2.70E+06.
